Measurements: patent publication US20160089393A1, “COMPOSITION AND METHODS FOR COMBATING ANTIBACTERIAL RESISTANT BACTERIA” (BLUEBERRY THERAPEUTICS LIMITED, priority 2013, published 2016)

Key:
EMRSA-15 [1] = assay: MIC by broth microdilution (antibacterial susceptibility test of EMRSA-15); type: cell-based, methicillin-resistant Staphylococcus aureus (MRSA); settings: Staphylococcus aureus, read-out: MIC of EMRSA-15 to oxacillin
Method: Antibacterial susceptibility test of EMRSA-15 was carried out according to NCCLS guidelines for broth micro broth dilution with modifications. EMRSA-15 was streaked from a −70° C. glycerol stock to Columbia base agar (Oxoid) supplemented with 5% horse blood (Oxoid) and 6 μg/ml oxacillin (Sigma), and incubated for 18-20 h at 33° C. Two to four bacterial colonies were inoculated into 3 ml Mueller Hinton broth (MHB, Oxoid) supplemented with 6 μg/ml oxacillin (Sigma) and incubated for 18-20 h at 33° C. with shaking at 180 rpm. Cultures were adjusted to OD625 0.08-0.1 (equivalent to 0.5 Mcfarland or 1-2×10^8 cfu/ml) with MHB and further diluted 1/50 to achieve a final concentration of 5×10^5 cfu per well. Susceptibility to either oxacillin, PHMB or peptides was tested by adding oxacillin (0-1024 μg/ml in MHB), PHMB (0-512 μg/ml in 1×PBS) or peptide (0-512 μg/ml in 1×PBS) to 75 μl of culture in a final volume of 150 μl per well. Plates were incubated at 33° C. for 24 h and growth was scored visually.

EMRSA-15 [2] = assay: Checkerboard synergy of PHMB and MecA peptides with oxacillin (FIC index); type: cell-based, methicillin-resistant Staphylococcus aureus (MRSA); settings: Staphylococcus aureus
Method: (§1) Synergy of PHMB and peptides (MecA3136, MecA3140) were tested by a standard checkerboard method of two-fold dilutions. PHMB and peptide were mixed at appropriate concentrations to a final volume of 30 μl in each well of a 96 well plate, and the mixtures were incubated at 20-22° C. for 30 mins before the addition of culture and oxacillin to a final volume of 150 μl. Plates were incubated and scored as above. FIC indices were calculated for wells without growth and containing the lowest combination of PHMB and peptide as follows: (A/MICA)+(B/MICB)=FICA+FICB=FIC index, where A is concentration of PHMB in combination, MICA is MIC of PHMB alone, B is concentration of peptide in combination, MICB is MIC of peptide alone. A control plate without oxacillin, and control wells of culture with increasing oxcaillin but without PHMB and peptide were included.

EMRSA-15 [3] = assay: Oxacillin sensitization: growth of EMRSA-15 with peptide, oxacillin and fixed PHMB; type: cell-based, methicillin-resistant Staphylococcus aureus (MRSA); set-up: key: 1 is growth; 0 is no growth; settings: MecA3136 0 uM, PHMB 0.25 μg/ml
Method: as §1, with “included. […]” for “included.”

EMRSA-15 [4] = assay: as above; type: cell-based, methicillin-resistant Staphylococcus aureus (MRSA); set-up: key: 1 indicates growth; 0 indicates no growth; settings: PHMB 1 ug/ml
Method: as §1, with “included. […]” for “included.”

EMRSA-15 [5] = assay: as above; type: cell-based, methicillin-resistant Staphylococcus aureus (MRSA)
Method: as §1, with “included. […]” for “included.”

[6] = target: T1, MecA (Penicillin binding protein 2A, PBP2A) (Staphylococcus aureus, UniProt P07944); assay: In vitro binding to MecA and block of oxacillin binding; set-up: species or system methicillin-resistant Staphylococcus aureus (MRSA)
T1 construct: The primers were designed so that the first 23 amino acids at the N terminus were deleted; GST (N, cleaved yes); primer-encoded linker LEVLFQGP-M (my own translation of the forward primer); made in house; host or cells: Escherichia coli BL21(DE3)
Method: For inhibitor screening recombinantly expressed and purified PBP2a is immobilised using an affinity tag to the surface of the wells of a microtiter plate. The wells are then incubated with serially diluted solutions of the peptide aptamer or indeed any possible inhibitor of PBP2a, plus a PBP2a substrate, such as BIO-AMP (Bobba et al. 2011) at a fixed concentration in PBS. After approximately 15 min, the binding reactions are stopped, and the plates were developed as described (Bobba et al. 2011). The background levels of fluorescence from control reactions are subtracted and then the inhibitor binding data are calculated and plotted to determine the Ki^app of binding.

T1 sequence (P07944 24-670): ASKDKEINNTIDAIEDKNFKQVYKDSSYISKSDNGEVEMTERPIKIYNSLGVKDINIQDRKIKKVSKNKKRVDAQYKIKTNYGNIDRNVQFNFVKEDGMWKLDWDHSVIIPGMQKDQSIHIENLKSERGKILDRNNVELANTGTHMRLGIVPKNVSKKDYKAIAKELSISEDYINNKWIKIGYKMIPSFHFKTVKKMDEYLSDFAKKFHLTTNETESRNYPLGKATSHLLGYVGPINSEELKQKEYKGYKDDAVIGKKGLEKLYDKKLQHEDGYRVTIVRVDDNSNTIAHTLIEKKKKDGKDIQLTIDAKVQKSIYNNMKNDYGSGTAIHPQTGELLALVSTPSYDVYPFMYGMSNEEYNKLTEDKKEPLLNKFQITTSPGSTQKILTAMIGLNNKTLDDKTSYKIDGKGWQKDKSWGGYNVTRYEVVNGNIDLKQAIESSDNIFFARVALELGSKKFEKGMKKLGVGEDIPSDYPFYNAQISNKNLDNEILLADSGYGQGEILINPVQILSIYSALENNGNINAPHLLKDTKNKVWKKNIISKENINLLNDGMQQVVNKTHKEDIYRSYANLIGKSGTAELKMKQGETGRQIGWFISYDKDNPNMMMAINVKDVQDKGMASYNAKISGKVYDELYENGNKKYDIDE

Cc1onc(-c2ccccc2)c1C(=O)N[C@@H]1C(=O)N2[C@@H]1SC(C)(C)[C@@H]2C(=O)O [Oxacillin, oxacillin, reference compound]
MIC (EMRSA-15 [1]; MHB + 0.25 μg/ml PHMB): 256 µg/mL
MIC (EMRSA-15 [1]; MHB + 176 μg/ml MecA3136): 128 µg/mL
MIC (EMRSA-15 [1]; MHB + 176 μg/ml MecA3140): 128 µg/mL
MIC (EMRSA-15 [1]; MHB): 128 µg/mL
MIC (EMRSA-15 [2]; oxacillin alone, checkerboard set of experiments): 256 µg/mL
MIC (EMRSA-15 [2]; with PHMB and MecA3136 at certain concentrations): 516 µg/mL
Growth of EMRSA-15 (EMRSA-15 [3]; oxacillin 16 ug/ml): 1
Growth of EMRSA-15 (EMRSA-15 [3]; oxacillin 32 ug/ml): 1
Growth of EMRSA-15 (EMRSA-15 [3]; oxacillin 64 ug/ml): 1
Growth of EMRSA-15 (EMRSA-15 [3]; oxacillin 128 ug/ml): 1
Growth of EMRSA-15 (EMRSA-15 [3]; oxacillin 256 ug/ml): 0
Growth of EMRSA-15 (EMRSA-15 [4]; E1 0 ug/ml, oxacillin 8 ug/ml): 1
Growth of EMRSA-15 (EMRSA-15 [4]; E1 0 ug/ml, oxacillin 16 ug/ml): 1
Growth of EMRSA-15 (EMRSA-15 [4]; E1 0 ug/ml, oxacillin 32 ug/ml): 1
Growth of EMRSA-15 (EMRSA-15 [4]; E1 0 ug/ml, oxacillin 64 ug/ml): 1
Growth of EMRSA-15 (EMRSA-15 [4]; E1 0 ug/ml, oxacillin 128 ug/ml): 0
Growth of EMRSA-15 (EMRSA-15 [4]; HIW 0 ug/ml, oxacillin 16 ug/ml): 1
Growth of EMRSA-15 (EMRSA-15 [4]; HIW 0 ug/ml, oxacillin 32 ug/ml): 1
Growth of EMRSA-15 (EMRSA-15 [4]; HIW 0 ug/ml, oxacillin 64 ug/ml): 0

B1: E1: MecA (PBP2A) binding peptide aptamer, Sequence ID No. 4; different scaffold to MecA3136 and MecA3140 (protein)
chain: ASAATGVRAVPGNENSLEIEELARFAVDEHNKKENALLEFVRVVKAKEQHWKAKLGHDTMYYLTLEAKDGGKKKLYEAKVWVKLIPTKDFHLNFKELQEFKPVGDAAAAHHHHHH
modifications: Peptide sequence E1
notes: different scaffold to MecA3136 and MecA3140
effect during the assay (EMRSA-15 [5]; oxacillin and 1 ug/ml PHMB): Sequence E1 is a different scaffold to MecA3136 and MecA3140, but in Table 11 shows a modest effect during the assay.
enhancement of oxacillin activity (EMRSA-15 [5]; with PHMB): Clear enhancement of oxacillin activity
binding to MecA and block of oxacillin binding [6]: bind to MecA and block oxycillin binding to MecA
Growth of EMRSA-15 (EMRSA-15 [4]; E1 5 ug/ml, oxacillin 0 ug/ml): 1
Growth of EMRSA-15 (EMRSA-15 [4]; E1 5 ug/ml, oxacillin 8 ug/ml): 1
Growth of EMRSA-15 (EMRSA-15 [4]; E1 5 ug/ml, oxacillin 16 ug/ml): 1
Growth of EMRSA-15 (EMRSA-15 [4]; E1 5 ug/ml, oxacillin 32 ug/ml): 1
Growth of EMRSA-15 (EMRSA-15 [4]; E1 5 ug/ml, oxacillin 64 ug/ml): 0
Growth of EMRSA-15 (EMRSA-15 [4]; E1 5 ug/ml, oxacillin 128 ug/ml): 0
Growth of EMRSA-15 (EMRSA-15 [4]; E1 10 ug/ml, oxacillin 0 ug/ml): 1
Growth of EMRSA-15 (EMRSA-15 [4]; E1 10 ug/ml, oxacillin 8 ug/ml): 1
Growth of EMRSA-15 (EMRSA-15 [4]; E1 10 ug/ml, oxacillin 16 ug/ml): 1
Growth of EMRSA-15 (EMRSA-15 [4]; E1 10 ug/ml, oxacillin 32 ug/ml): 1
Growth of EMRSA-15 (EMRSA-15 [4]; E1 10 ug/ml, oxacillin 64 ug/ml): 0
Growth of EMRSA-15 (EMRSA-15 [4]; E1 10 ug/ml, oxacillin 128 ug/ml): 0
Growth of EMRSA-15 (EMRSA-15 [4]; E1 20 ug/ml, oxacillin 0 ug/ml): 1
Growth of EMRSA-15 (EMRSA-15 [4]; E1 20 ug/ml, oxacillin 8 ug/ml): 1
Growth of EMRSA-15 (EMRSA-15 [4]; E1 20 ug/ml, oxacillin 16 ug/ml): 1
Growth of EMRSA-15 (EMRSA-15 [4]; E1 20 ug/ml, oxacillin 32 ug/ml): 0
Growth of EMRSA-15 (EMRSA-15 [4]; E1 20 ug/ml, oxacillin 64 ug/ml): 0
Growth of EMRSA-15 (EMRSA-15 [4]; E1 20 ug/ml, oxacillin 128 ug/ml): 0
